For experiment [1], the target named is recombinant human coagulation factor IX (human) (UniProt P00740). Description: cell-based or functional assay.
The target of experiment [2] is T1, recombinant human coagulation factor IX (human, UniProt P00740 47-461).
T1 construct: also called FIX; human FIX
Description: SPR, FIX immobilized on the sensor, knob in solution.

A value given as a limit tells only on which side of the number the result lay.

Chain of recombinant human coagulation factor IX (human) (P00740 47-461 limits assumed): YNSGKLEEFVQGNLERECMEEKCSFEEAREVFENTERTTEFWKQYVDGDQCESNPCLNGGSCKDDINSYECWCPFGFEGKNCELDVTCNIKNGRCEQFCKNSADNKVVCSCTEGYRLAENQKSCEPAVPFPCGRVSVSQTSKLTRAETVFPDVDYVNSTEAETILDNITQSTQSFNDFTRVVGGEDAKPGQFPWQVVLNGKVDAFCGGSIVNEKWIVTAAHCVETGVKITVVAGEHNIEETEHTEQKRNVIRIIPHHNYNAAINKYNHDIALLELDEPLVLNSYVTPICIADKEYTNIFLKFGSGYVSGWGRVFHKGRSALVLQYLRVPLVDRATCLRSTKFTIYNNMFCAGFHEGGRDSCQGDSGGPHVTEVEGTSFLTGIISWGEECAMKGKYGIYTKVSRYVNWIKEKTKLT
T1 sequence (P00740 47-461 limits assumed): as above

On to “Ad5/35L virus (Ad5 capsid, long Ad5 fiber shaft, Ad35 fiber knob domain) (from UniProt P11818 1-399)”, for which the reporter gene activities in HSPG-expressing CHO-K1 cells infected with FIX compared to infection without FIX in experiment [1] was greater than 45 fold. Turning to “Ad5F* virus (long-shafted Ad5-based vector, fiber knob aa 477 Y to A, C-terminal 6-His) (from UniProt P11818 1-581)”, in experiment [1], the reporter gene activities in HSPG-expressing CHO-K1 cells infected with FIX compared to infection without FIX was greater than 45 fold and the transduction of primary human hepatocytes (luciferase activity) with FIX compared to without is greater than 14 fold.

B1: purified recombinant Ad5 fiber knob domain (other)
chain: DKLTLWTTPAPSPNCRLNAEKDAKLTLVLTKCGSQILATVSVLAVKGSLAPISGTVQSAHLIIRFDENGVLLNNSFLDPEYWNFRNGDLTEGTAYTNAVGFMPNLSAYPKSHGKTAKSNIVSQVYLNGDKTKPVTLTITLNGTQETGDTTPSAYSMSFSWDWSGHNYINEIFATSSYTFSYIAQE
notes: also called Ad5 knob
As to B1, in experiment [2], the binding result was “binds”.

B2: purified recombinant Ad35 fiber knob domain (other)
chain: SINTLWTGINPPPNCQIVENTNTNDGKLTLVLVKNGGLVNGYVSLVGVSDTVNQMFTQKTANIQLRLYFDSSGNLLTEESDLKIPLKNKSSTATSETVASSKAFMPSTTAYPFNTTTRDSENYIHGICYYMTSYDRSLFPLNISIMLNSRMISSNVAYAIQFEWNLNASESPESNIATLTTSPFFFSYITEDDN
notes: also called Ad35 knob; biotin-conjugated Ad35 fiber knob domain
Turning to B2, the binding result in experiment [2] is “binds”.

The values above are taken from patent publication US20060281090A1 (University of Washington, published 2006).
